In series [1] the target is T1, TrmBL2 (Pyrococcus furiosus, UniProt Q8U3H1 1-264).
T1 sequence: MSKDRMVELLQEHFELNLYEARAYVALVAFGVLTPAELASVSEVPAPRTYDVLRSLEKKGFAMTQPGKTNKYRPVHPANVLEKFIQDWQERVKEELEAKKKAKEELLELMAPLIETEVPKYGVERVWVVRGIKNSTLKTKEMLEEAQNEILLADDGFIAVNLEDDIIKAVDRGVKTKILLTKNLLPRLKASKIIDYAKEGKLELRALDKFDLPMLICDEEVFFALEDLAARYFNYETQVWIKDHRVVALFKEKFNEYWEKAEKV
Nature of the series: magnetic tweezers (persistence length). The conditions noted are these: half-coverage, Hill coefficient 3.0 +/- 0.33; EMSA: PBS, 10 nM DNA, 1 h, room temperature, 8% PAGE in PBS; magnetic tweezers: PBS pH 7.4, 5 mM NaN3, room temperature. (Mobility shift assays separate free from complexed probe on a gel.)

Series [2] has as its target T1, TrmBL2. Nature of the series: EMSA; apparent Kd, Hill fit, Hill coefficient 2.9 +/- 0.4; Fig 6 legend gives 2.0 uM; EMSA: PBS, 10 nM DNA, 1 h, room temperature, 8% PAGE in PBS; magnetic tweezers: PBS pH 7.4, 5 mM NaN3, room temperature. The conditions noted are these: protein: recombinant; chain copies: 2; label: 5'-Cy5.
Series [3] has as its target T1, TrmBL2. Nature of the series: EMSA; apparent Kd, Hill fit, Hill coefficient 4.4 +/- 0.6; Fig 6 legend gives 1.0 uM; EMSA: PBS, 10 nM DNA, 1 h, room temperature, 8% PAGE in PBS; magnetic tweezers: PBS pH 7.4, 5 mM NaN3, room temperature. As to conditions: protein: recombinant; chain copies: 2; label: 5'-Cy5 on S1; blunt.
Series [4] deals with the molecule itself. Nature of the series: SEC; gel filtration on a 60 ml Superdex 200 column, 40 mM HEPES pH 7.5, 150 mM NaCl; last step of the purification. On the technique in general: SEC sorts molecules by how far they enter the pores of the column.

In turn, dsDNA tether for magnetic tweezers showed a K half in series [1] of 300 nM.

B1: 60mer ssDNA (ssDNA)
DNA: GATATAATATACCTATATCAATGGCCTCCCACGCATAAGCGCAGATACGTTCTGAGGGAA
For B1, in series [2], the Kd turned out to be 2100 ± 100 nM.

B2: 60mer dsDNA (dsDNA)
DNA 1: B1 DNA
DNA 2: TTCCCTCAGAACGTATCTGCGCTTATGCGTGGGAGGCCATTGATATAGGTATATTATATC
Consider B2, for which the Kd in series [3] amounted to 1070 ± 30 nM.

B3: TrmBL2 from Pyrococcus furiosus (natural protein, UniProt Q8U3H1 1-264, looked up)
chain: T1 sequence
notes: TrmBL2 (30.6 kDa) from Pyrococcus furiosus; This E. coli material is dimeric by gel filtration; also called archaeal "TrmB-like" protein TrmBL2; source: E.coli BL21 (DE3), purified (heating to 80°C, Q-Sepharose, Superdex 200)
On to B3, for which, in series [4], the stoichiometry N – broadly, the number of molecules, sites or subunits per partner or assembly – came to 2.

(Values after paper PMC4877046, “TrmBL2 from Pyrococcus furiosus Interacts Both with Double-Stranded and Single-Stranded DNA” (PLoS ONE, 2016).)
